Test results from the supplement of paper PMC10567573.
± gives the standard deviation.

Assay: protein stability index of a GFP-peptide fusion (GPS, HEK-293T) (PSI 1-6); higher = more stable
[1] = treatment: DMSO, c terminus: a fixed tail appended
[2] = treatment: MLN4924 1 uM, 8 h, c terminus: a fixed tail appended
[3] = treatment: DMSO, c terminus: native
[4] = treatment: MLN4924 1 uM, 8 h, c terminus: native
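Note: 24-mer peptide tiles fused after GFP, lentivirally expressed, FACS-sorted into six equal bins by GFP/DsRed ratio, decoded by Illumina sequencing, PSI is the read-weighted mean bin number.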

| Sequence | protein stability index [1] | protein stability index [2] | protein stability index [3] | protein stability index [4] |
| --- | --- | --- | --- | --- |
| TKEEGLALAREFSCPFFETSAAYR [RIT1] | 3.15 ± 0.29 | 3.13 ± 0.15 |  |  |
| PSEPSAPLPAGVPPLEDFEVLDGV [FKBP8] | 5.49 ± 0.18 | 5.53 ± 0.11 |  |  |
| VFLNLHTLKFYCLPDNYEIIDSSL [USP39] | 3.08 ± 0.48 | 2.58 ± 0.33 |  |  |
| MEVQHFRTIYHMFIAGLCVFIIST [SOAT2] | 2.95 ± 0.27 | 3.18 ± 0.52 |  |  |
| REIALAKKHGTQNKRAALQALKRK [CHMP4C] | 4.04 ± 0.14 | 4.29 ± 0.39 |  |  |
| TSFALERNLRTQQEIEDKMKGFSF [C8orf76] | 3.54 ± 0.19 | 3.53 ± 0.2 |  |  |
| LHCYRDRPHEVLLCSDLVKAYQRC [CHCHD6] | 2.16 ± 0.36 | 2.19 ± 0.24 |  |  |
| DMENKENGSVGVKNSMENGRPPDP [SAMD13] | 5.11 ± 0.27 | 5.15 ± 0.32 |  |  |
| MESLISAPLVKTLEKEEEKDLVMY [CDC25B] | 4.56 ± 0.062 | 4.61 ± 0.24 |  |  |
| WATRKPPAPKSTYECRCIGEEKEM [TIA1] | 2.98 ± 0.44 | 3.4 ± 0.58 |  |  |
| AHSSSNTIRSGISPNLNVVDGRLT [SASS6] | 4.16 ± 0.28 | 4.31 ± 0.12 |  |  |
| RVSDVQKVLQGGEQEIQFEDFTNT [PKD2L1] | 4.8 ± 0.6 | 4.85 ± 0.36 |  |  |
| PEEFSLLKLQTKDGHRPEWTFYPR [SPATS1] | 2.76 ± 0.32 | 2.87 ± 0.49 |  |  |
| PDALSDVGEVPYWVLEPVLEGWRP [ELOA2] | 3.07 ± 0.26 | 3.13 ± 0.54 |  |  |
| AQLQALRQKEVDFCISLLRERFME [INTS3] | 2.61 ± 0.27 | 2.58 ± 0.59 |  |  |
| EEKSVKNTSIRVADFGSATFDHEH [CLK3] | 5.1 ± 0.11 | 5.07 ± 0.21 |  |  |
| KALQMLLSQPVTYQAFRECTLETT [BCL2L13] | 3.24 ± 0.35 | 2.79 ± 0.42 |  |  |
| YSLASGAGGGGSKGNSLKRSKSIR [RAB40C] | 4.37 ± 0.17 | 4.41 ± 0.26 |  |  |
| AYPFYWAWLPQAKVPFSQEIKDLI [PI4K2A] | 2.23 ± 0.32 | 2.13 ± 0.14 |  |  |
| VEVDAAPAVDLNQVLNETRNQYEA [KRT33B] | 4.91 ± 0.29 | 5.17 ± 0.21 |  |  |
| SEGTNLNAPNSLGVSALCAICGDR [HNF4A] | 3.88 ± 0.28 | 4.13 ± 0.26 |  |  |
| KQRLMENTEDWRPRPGTGQSRSFR [PDLIM7] | 4.18 ± 0.2 | 4.418 ± 0.008 |  |  |

| Sequence | protein stability index [1] | protein stability index [2] | protein stability index [3] | protein stability index [4] |
| --- | --- | --- | --- | --- |
| FSPDGPSRFRKAYKPEQPLVRLRG [LOXL2] | 2.5 ± 0.58 | 3.39 ± 0.68 |  |  |
| GKELAGTMDGEGTLFQTESPQSGS [PBXIP1] | 5.42 ± 0.43 | 5.38 ± 0.17 |  |  |
| GEEQTQNPYTELLVLKAHHDIVRF [WDR41] | 2.51 ± 0.32 | 2.79 ± 0.3 |  |  |
| LEPVKKSRLQLLGATCMFVASKMK [CCND1] | 2.23 ± 0.16 | 2.12 ± 0.41 |  |  |
| EQLLVLVEWAKYIPAFCELPLDDQ [HNF4A] | 2.57 ± 0.78 | 2.46 ± 0.42 |  |  |
| VWNMTATRPKKMGSQLPKPRMLRE [FATE1] | 2.94 ± 0.24 | 3 ± 0.12 |  |  |
| ARELQEALPEAPAPLLPHITATSL [BCL2L13] | 4.32 ± 0.4 | 4.32 ± 0.22 |  |  |
| TQGLPWRFEELLTCSHWPSFFPS [TEX19] |  |  | 2.78 ± 0.46 | 2.24 ± 0.87 |
| CLMGLAETPGCATLLPASLFVNSH [DCAF4] | 2.35 ± 0.3 | 2.35 ± 0.34 |  |  |
| NLPSGGKGFKLRRQPSEPKRSCC [RAB22A] |  |  | 3.89 ± 0.34 | 4 ± 0.35 |
| IVVATLPIPVVFVLRHFHLLSDGS [SLC6A17] | 2.92 ± 0.56 | 3.21 ± 0.24 |  |  |
| ASVINNMLAEIFCQTGGVEDQEEW [ZBED1] | 3.31 ± 0.31 | 3.89 ± 0.33 |  |  |
| AVGVLLLGLVGYYIFRVANHQKDL [DHCR7] | 2.84 ± 0.29 | 2.79 ± 0.53 |  |  |
| INLPVEEFNELLSKYQLSEAQLSL [NFE2L1] | 2.47 ± 0.44 | 2.51 ± 0.21 |  |  |
| TNLTWDQVITLDQVLDEVIPIHGK [TENT5D] | 2.47 ± 0.16 | 2.61 ± 0.3 |  |  |
| SWSAGLHNRYTENSLRGVILDIHF [FUT8] | 2.88 ± 0.67 | 2.86 ± 0.73 |  |  |
| YHPEEFVCSQCGKVLEEGGFFEEK [PDLIM7] | 3.94 ± 0.5 | 3.93 ± 0.57 |  |  |
| FLQQSLERVYSLQHLDPQGAQELL [INTS4] | 1.91 ± 0.42 | 2.76 ± 0.54 |  |  |
| QLGLGRGASTFKEEPQTVPEARSR [JUNB] | 5.04 ± 0.1 | 5.22 ± 0.26 |  |  |
| YVLNLLYETKKHLVQLPNINRVST [PPEF2] | 2.49 ± 0.68 | 2.59 ± 0.39 |  |  |
| QVLVKDFTFEGFSRLRFLNLGRMI [ZER1] | 2.07 ± 0.22 | 2.08 ± 0.23 |  |  |
| RIATETDQIGSEIIEELGEQRDQL [VTI1B] | 5.38 ± 0.2 | 5.37 ± 0.14 |  |  |
